Molecular target: SDDV major capsid protein, Flag-tagged (pFlag-N3-SDDV MCP) (scale drop disease virus (SDDV))

ADLFRNQFALATWTIQGCANSLAGDIWSL [TM-B polypeptide containing the binding site with SDDV-MCP in mfTfR1] gave a mortality of mandarin fish challenged with SDDV pre-incubated with TM-B, against the petB2M control (blocks m2 with m8) of 40%.

Source: publication PMC12363161
